Measurements published in patent publication US11066455B2, “Tmem100 peptides and variants thereof and their use in treating or preventing diseases or conditions” (The Johns Hopkins University, priority 2014, dated 2021).
* marks the point of attachment. Myristoyl = CCCCCCCCCCCCCC(=O)*

How the values were obtained:
TRPA1 [1] = target: T1, TRPA1 (Mus musculus, UniProt Q704Y3+Q8BLA8); assay: Calcium imaging of DRG neurons, response to mustard oil (MO); type: cell-based; details: peptide 200 nM pretreatment; 10 μM MO; IB4-negative DRG neurons
T1 construct: endogenous in cells; host or cells: primary mouse DRG neurons
T1 sequence (Q8BLA8 whole entry): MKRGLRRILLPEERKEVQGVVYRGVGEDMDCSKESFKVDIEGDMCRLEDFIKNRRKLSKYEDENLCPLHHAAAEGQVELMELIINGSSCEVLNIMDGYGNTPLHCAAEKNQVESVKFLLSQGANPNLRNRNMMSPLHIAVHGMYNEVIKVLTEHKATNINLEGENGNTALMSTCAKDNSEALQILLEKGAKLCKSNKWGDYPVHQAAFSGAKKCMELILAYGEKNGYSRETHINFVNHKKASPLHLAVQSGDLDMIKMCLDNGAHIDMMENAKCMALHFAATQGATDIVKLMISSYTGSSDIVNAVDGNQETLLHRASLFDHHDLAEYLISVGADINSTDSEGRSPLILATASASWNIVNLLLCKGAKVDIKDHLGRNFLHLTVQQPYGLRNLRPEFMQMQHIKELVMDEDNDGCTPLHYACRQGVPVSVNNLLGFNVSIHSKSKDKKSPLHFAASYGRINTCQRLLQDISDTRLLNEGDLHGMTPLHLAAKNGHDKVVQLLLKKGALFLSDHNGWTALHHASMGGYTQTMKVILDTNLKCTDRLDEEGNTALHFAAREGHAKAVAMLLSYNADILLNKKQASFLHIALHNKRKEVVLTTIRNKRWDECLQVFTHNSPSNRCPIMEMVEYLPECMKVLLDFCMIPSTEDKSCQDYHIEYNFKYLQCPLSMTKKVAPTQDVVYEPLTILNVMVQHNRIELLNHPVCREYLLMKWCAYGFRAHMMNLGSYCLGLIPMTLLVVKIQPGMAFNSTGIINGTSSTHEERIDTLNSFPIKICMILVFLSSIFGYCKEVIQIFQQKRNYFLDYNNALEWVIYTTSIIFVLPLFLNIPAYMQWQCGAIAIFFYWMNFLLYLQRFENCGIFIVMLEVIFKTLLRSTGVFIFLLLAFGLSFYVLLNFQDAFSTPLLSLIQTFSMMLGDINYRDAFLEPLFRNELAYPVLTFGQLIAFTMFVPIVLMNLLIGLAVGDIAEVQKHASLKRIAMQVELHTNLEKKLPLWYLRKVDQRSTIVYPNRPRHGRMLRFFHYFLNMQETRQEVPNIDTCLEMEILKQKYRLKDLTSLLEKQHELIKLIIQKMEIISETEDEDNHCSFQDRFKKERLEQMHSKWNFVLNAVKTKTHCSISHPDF
T1 sequence (Q704Y3 whole entry): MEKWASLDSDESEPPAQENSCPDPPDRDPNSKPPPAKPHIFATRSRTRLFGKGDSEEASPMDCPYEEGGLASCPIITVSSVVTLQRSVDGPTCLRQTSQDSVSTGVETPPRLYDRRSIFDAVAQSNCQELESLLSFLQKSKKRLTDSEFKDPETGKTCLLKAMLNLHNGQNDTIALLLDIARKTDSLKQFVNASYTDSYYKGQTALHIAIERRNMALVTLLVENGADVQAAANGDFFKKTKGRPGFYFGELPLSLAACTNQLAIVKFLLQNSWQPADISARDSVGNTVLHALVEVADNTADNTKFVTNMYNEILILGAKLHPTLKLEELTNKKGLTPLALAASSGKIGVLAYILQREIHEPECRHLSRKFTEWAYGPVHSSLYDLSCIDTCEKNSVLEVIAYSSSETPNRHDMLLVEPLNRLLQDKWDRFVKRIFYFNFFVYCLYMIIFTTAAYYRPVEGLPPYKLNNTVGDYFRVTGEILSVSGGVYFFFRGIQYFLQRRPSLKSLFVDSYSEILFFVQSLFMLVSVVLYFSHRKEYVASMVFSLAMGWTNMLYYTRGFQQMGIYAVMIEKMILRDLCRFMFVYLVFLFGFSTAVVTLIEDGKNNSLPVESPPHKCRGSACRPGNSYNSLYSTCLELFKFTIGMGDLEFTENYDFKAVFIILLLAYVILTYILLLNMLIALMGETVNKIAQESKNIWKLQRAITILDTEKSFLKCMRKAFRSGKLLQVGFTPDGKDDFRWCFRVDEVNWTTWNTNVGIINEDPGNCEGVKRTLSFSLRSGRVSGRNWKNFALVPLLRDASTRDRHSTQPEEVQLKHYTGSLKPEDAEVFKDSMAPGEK
Description: Calcium imaging assays were performed as previously described (Liu et al., 2009). Cells were loaded with 2 μM fura 2-acetomethoxy ester (Molecular Probes) for 30 min in the dark at room temperature or for 45 minutes at 37° C. for DRG and cell lines, respectively. After washing, cells were imaged at 340 and 380 nm excitation to detect intracellular free calcium under a fluorescent microscope (Nikon Eclipse TE2000-S) and Lambda 10B shutter (Sutter Instrument). The cells were bathed in calcium imaging buffer (pH 7.45, 130 mM NaCl, 3 mM KCl, 2.5 mM CaCl2, 10 mM HEPES, 10 mM glucose, 1.2 mM NaHCO3, with sucrose to increase osmolarity to 290 mOsm). […] Images were processed and analyzed with NIS-Elements BR 2.30 software (Nikon). […] The data was analyzed with the experimenter blinded to the genotypes or constructs transfected.
DRG from 3 to 4-week old mice were collected in cold DH10 medium (90% DMEM/F-12, 10% FBS, 100 U/ml penicillin, and 100 μg/ml Streptomycin, Gibco) and treated with enzyme solution in HBSS containing collagenase (1.65 mg/mL, Worthington CLS I) and dispase (3.55 mg/mL, GIBCO 17105-041) at 37° C. for 30 minutes. […] This efficiency was determined by mCherry(+) divided by total number of cells in the bright fields. […]

[2] = test system: ongoing neuropathic pain in SNL rats; assay: Conditioned place preference test for ongoing pain in SNL rats; type: in vivo, rat; details: intrathecal 50 μM, 10 μl; scramble peptide-paired chamber as comparison
From the text: Ongoing, or spontaneous, pain, which is most bothersome to patients, is difficult to treat and difficult to study in animals. The conditioned place preference test has been successfully developed to reveal the presence of non-evoked, ongoing pain and pain relief based on the preference of an animal for the context paired with a pain-relief treatment. The conditioned place preference can also capture the aversive aspects of pain. Strikingly, many studies have shown that the rodent conditioned place preference test accurately reflects the effectiveness of human clinical treatments. Therefore, this test is a powerful approach to investigate the potential effectiveness of new treatments and mechanisms for relief of ongoing pain. Two previous studies have examined the role of TRPA1 in ongoing pain by the conditioned place preference test. […] Because the antagonists used in those studies (HC030031 and Chem5861528) target TRPA1 monomers, it is possible that T100-Mut can inhibit ongoing pain by modulating the TRPA1/V1 complex. This possibility was tested in rodents with SNL-induced ongoing pain using the conditioned place preference test. […] Systemic administration of gabapentin, an analgesic that is known to alleviate neuropathic pain, was used as a positive control (FIG. 16B).

TRPA1 [3] = test system: T2, TRPA1; assay: MO-evoked Ca2+ influx into CHO cells expressing TRPA1+TRPV1; type: cell-based; details: TRPA1+TRPV1+Tmem100-3Q (1:1:4) CHO cells
T2 construct: MO (10 μM)-evoked Ca2+ influx; other: TRPA1+TRPV1+Tmem100-3Q (1:1:4) CHO cells; MO (10 μM)-gated whole-cell current density; other: Vh=-60 mV; TRPA1+TRPV1+Tmem100-3Q (1:1:4) CHO cells; MO (10 μM)-induced single-channel activity (NPo); co-expressed with TRPA1+TRPV1 (1:1:4) in CHO cells
Description: Calcium imaging assays were performed as previously described (Liu et al., 2009). Cells were loaded with 2 μM fura 2-acetomethoxy ester (Molecular Probes) for 30 min in the dark at room temperature or for 45 minutes at 37° C. for DRG and cell lines, respectively. After washing, cells were imaged at 340 and 380 nm excitation to detect intracellular free calcium under a fluorescent microscope (Nikon Eclipse TE2000-S) and Lambda 10B shutter (Sutter Instrument). The cells were bathed in calcium imaging buffer (pH 7.45, 130 mM NaCl, 3 mM KCl, 2.5 mM CaCl2, 10 mM HEPES, 10 mM glucose, 1.2 mM NaHCO3, with sucrose to increase osmolarity to 290 mOsm). The reagents and buffers were applied through a gravity perfusion system at a rate of […], including mustard oil (Sigma 377430), cinnamaldehyde (Sigma C80687), menthol (Sigma M2780), and capsaicin (Sigma M2028). Cells with high baseline 340/380 values (>1.5) were excluded for analysis. For DRG neurons, IB4 staining was performed in the chamber with the dilution of 1:200 (Molecular Probes 121412) for 160 seconds before washing off at the end of each test. Images were processed and analyzed with NIS-Elements BR 2.30 software (Nikon). A responsive cell was defined as one that with greater than a 20% increase in the 340/380 ratio above the baseline. […] The data was analyzed with the experimenter blinded to the genotypes or constructs transfected.

[4] = target: TRPV1 (expressed in heterologous cells: CHO, HEK293T); assay: cell-based or functional assay
[5] = target: TRPA1 (expressed in heterologous cells: CHO, HEK293T); assay: cell-based or functional assay
Chain of TRPA1 (expressed in heterologous cells: CHO, HEK293T) (O75762 whole entry): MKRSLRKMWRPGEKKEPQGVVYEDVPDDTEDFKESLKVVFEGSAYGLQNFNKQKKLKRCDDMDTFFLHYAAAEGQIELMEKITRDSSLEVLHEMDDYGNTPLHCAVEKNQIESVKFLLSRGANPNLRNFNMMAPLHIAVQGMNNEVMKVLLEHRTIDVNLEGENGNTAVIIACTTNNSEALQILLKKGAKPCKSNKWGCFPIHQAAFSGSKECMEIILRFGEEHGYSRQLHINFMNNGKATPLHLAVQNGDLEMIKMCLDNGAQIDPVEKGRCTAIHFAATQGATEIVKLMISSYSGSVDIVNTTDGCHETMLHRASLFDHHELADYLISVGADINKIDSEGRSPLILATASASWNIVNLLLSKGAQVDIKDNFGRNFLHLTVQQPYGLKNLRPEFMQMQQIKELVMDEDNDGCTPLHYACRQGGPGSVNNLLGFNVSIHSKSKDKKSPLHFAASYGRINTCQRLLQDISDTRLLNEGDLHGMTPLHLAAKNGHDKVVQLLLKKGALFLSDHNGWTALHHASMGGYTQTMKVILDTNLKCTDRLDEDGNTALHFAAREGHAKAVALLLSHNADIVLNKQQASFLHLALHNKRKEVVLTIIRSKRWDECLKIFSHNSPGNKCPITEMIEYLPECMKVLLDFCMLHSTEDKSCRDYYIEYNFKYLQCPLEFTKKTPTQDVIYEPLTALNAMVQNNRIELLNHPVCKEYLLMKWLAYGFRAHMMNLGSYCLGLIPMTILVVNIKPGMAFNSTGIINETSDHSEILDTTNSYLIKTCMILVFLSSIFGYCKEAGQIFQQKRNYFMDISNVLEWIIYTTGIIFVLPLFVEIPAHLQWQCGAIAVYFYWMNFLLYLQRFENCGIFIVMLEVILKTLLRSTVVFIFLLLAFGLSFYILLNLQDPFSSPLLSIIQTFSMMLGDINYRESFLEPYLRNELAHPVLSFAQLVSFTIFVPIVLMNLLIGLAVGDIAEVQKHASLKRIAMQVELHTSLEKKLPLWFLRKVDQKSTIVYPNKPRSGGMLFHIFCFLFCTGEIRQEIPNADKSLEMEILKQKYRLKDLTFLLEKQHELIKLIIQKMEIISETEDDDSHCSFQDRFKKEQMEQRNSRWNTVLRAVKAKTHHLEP

TRPA1 [6] = assay: Calcium imaging of HEK293T cells expressing TRPA1 and TRPV1 (MO or CA); type: cell-based; details: HEK293T TRPA1+TRPV1 with Tmem100
Description: Calcium imaging assays were performed as previously described (Liu et al., 2009). Cells were loaded with 2 μM fura 2-acetomethoxy ester (Molecular Probes) for 30 min in the dark at room temperature or for 45 minutes at 37° C. for DRG and cell lines, respectively. After washing, cells were imaged at 340 and 380 nm excitation to detect intracellular free calcium under a fluorescent microscope (Nikon Eclipse TE2000-S) and Lambda 10B shutter (Sutter Instrument). The cells were bathed in calcium imaging buffer (pH 7.45, 130 mM NaCl, 3 mM KCl, 2.5 mM CaCl2, 10 mM HEPES, 10 mM glucose, 1.2 mM NaHCO3, with sucrose to increase osmolarity to 290 mOsm). The reagents and buffers were applied through a gravity perfusion system at a rate of […], including mustard oil (Sigma 377430), cinnamaldehyde (Sigma C80687), menthol (Sigma M2780), and capsaicin (Sigma M2028). Cells with high baseline 340/380 values (>1.5) were excluded for analysis. For DRG neurons, IB4 staining was performed in the chamber with the dilution of 1:200 (Molecular Probes 121412) for 160 seconds before washing off at the end of each test. Images were processed and analyzed with NIS-Elements BR 2.30 software (Nikon). A responsive cell was defined as one that with greater than a 20% increase in the 340/380 ratio above the baseline. Intracellular calibration for calcium was performed as previously described (Akopian et al., 2007). The data was analyzed with the experimenter blinded to the genotypes or constructs transfected.
DRG from 3 to 4-week old mice were collected in cold DH10 medium (90% DMEM/F-12, 10% FBS, 100 U/ml penicillin, and 100 μg/ml Streptomycin, Gibco) and treated with enzyme solution in HBSS containing collagenase (1.65 mg/mL, Worthington CLS I) and dispase (3.55 mg/mL, GIBCO 17105-041) at 37° C. for 30 minutes. After trituration and centrifugation, cells were resuspended in DH10, plated on glass coverslips coated with poly-D-lysine (0.5 mg/ml, Stoughton, Mass.) and laminin (10 μg/ml, Invitrogen), and cultured overnight in an incubator at 37° C. The neurons were tested within 24 hours. HEK293T, COS-7, and CHO cells were cultured in a medium consisting of 90% DMEM, 10% FBS, 100 U/mL penicillin, and 100 μg/ml Streptomycin. GlutaMAX (Gibco 35050-061) was also added for CHO cells. For calcium imaging, the cells were plated on glass coverslips coated with poly-D-lysine (0.5 mg/ml, Stoughton, Mass.). In the HEK cell studies the denominator is the cells expressing both TRPA1, TRPV1, and the designated constructs (i.e. Tmem100 or Tmem100-3Q mutant). mCherry:TRPV1:Tmem100 was transfected in 1:8:8 ratio into TRPA1 stable cell line (obtained from N. Tigue from GlaxoSmithKline) and used mCherry as the marker for the cells expressing the constructs 18 hours after transfection with Lipofectamine 2000. The transfection efficiency for Tmem100+TRPV1+TRPA1 triple-positive cells is 27±3%. This efficiency was determined by mCherry(+) divided by total number of cells in the bright fields.
The sequence from the last 28 amino acids of the C-terminus of the Tmem100-3Q mutant protein was synthesized and myristoylated at its N-terminus (myr-[…]-COOH) (SEQ ID NO: 8) by Twentyfirst Century Biochemicals. […] For the calcium imaging assay, the peptides were added to the calcium imaging buffer with a final concentration of 200 nM and incubated for at least […] at room temperature. For the mice behavioral assays, the peptides (5 μL, 2 mM) were injected subcutaneously in the hindpaw at least 30 minutes before testing. For the rat behavior assays, human T100-3Q (h-T100), a palmitoylated cell permeable peptide mutated based on the C terminus of human sequence in Tmem100, was applied. The sequence is Palmitoyl-[…]-COOH (SEQ ID NO: 7).

Molecule: myr-QRVLEQVLQNWSRRANVKQAQKFQVKCT-COOH (Myristoyl-QRVLEQVLQNWSRRANVKQAQKFQVKCT-OH; SMILES CCCCCCCCCCCCCC(=O)N[C@@H](CCC(N)=O)C(=O)N[C@@H](CCCNC(=N)N)C(=O)N[C@H](C(=O)N[C@@H](CC(C)C)C(=O)N[C@@H](CCC(=O)O)C(=O)N[C@@H](CCC(N)=O)C(=O)N[C@H](C(=O)N[C@@H](CC(C)C)C(=O)N[C@@H](CCC(N)=O)C(=O)N[C@@H](CC(N)=O)C(=O)N[C@@H](Cc1c[nH]c2ccccc12)C(=O)N[C@@H](CO)C(=O)N[C@@H](CCCNC(=N)N)C(=O)N[C@@H](CCCNC(=N)N)C(=O)N[C@@H](C)C(=O)N[C@@H](CC(N)=O)C(=O)N[C@H](C(=O)N[C@@H](CCCCN)C(=O)N[C@@H](CCC(N)=O)C(=O)N[C@@H](C)C(=O)N[C@@H](CCC(N)=O)C(=O)N[C@@H](CCCCN)C(=O)N[C@@H](Cc1ccccc1)C(=O)N[C@@H](CCC(N)=O)C(=O)N[C@H](C(=O)N[C@@H](CCCCN)C(=O)N[C@@H](CS)C(=O)N[C@H](C(=O)O)[C@@H](C)O)C(C)C)C(C)C)C(C)C)C(C)C) [scrambled]
- percentage of DRG neurons responding to MO (TRPA1 [1]): 12±1.3%
- conditioned place preference: time in drug-paired chamber, SNL rats [2]: no effect

B1: Tmem100-3Q mutant (full-length, mouse) (protein)
chain: MTEESTKENLGAPKSPTPVTMEKNPKREVVVTTGPLVSEVQLMAATGGAELSCYRCIIPFAVVVFITGIVVTAVAYSFNSHGSIISIFGLVLLSSGLFLLASSALCWKVRQRNKKVQQQESQTALVVNQRCLFA
- MO (10 μM)-evoked Ca2+ influx (TRPA1 [3]): 321 ± 18.2 nM
- CAP (100 nM)-induced single-channel activity (NPo), CHO cells [4]: 0.73
- MO (10 µM)-induced single-channel activity (NPo), CHO cells [5]: 1.05

B2: Tmem100: 134-amino acid two-transmembrane protein, regulator of TRPA1 (SEQ ID NO: 1/2), expressed in cells (protein, listed as Homo sapiens, listed as Mus musculus)
chain 1: MTEEPIKEILGAPKAHMAATMEKSPKSEVVITTVPLVSEIQLMAATGGTELSCYRCIIPFAVVVFIAGIVVTAVAYSFNSHGSIISIFGLVVLSSGLFLLASSALCWKVRQRSKKAKRRESQTALVANQRSLFA
chain 2: MTEESTKENLGAPKSPTPVTMEKNPKREVVVTTGPLVSEVQLMAATGGAELSCYRCIIPFAVVVFITGIVVTAVAYSFNSHGSIISIFGLVLLSSGLFLLASSALCWKVRQRNKKVKRRESQTALVVNQRCLFA
- percentage of cells responsive to MO (TRPA1 [6]; 100 nM MO): 20%
- percentage of cells responsive to CA (TRPA1 [6]; 5 μM CA): 30%
